Experimental data reported in US11969458B2, “Formula of neuregulin preparation” (Zensun (Shanghai) Science & Technology, Co., Ltd., priority 2014, dated 2024).

Experiments:
[1] = Forced degradation study of rhNRG-1 (oxidation with H2O2), RP-HPLC; type: physicochemical; conditions: for rhNRG-1 conc.: 0.06% H2O2, RT
Method: The API solution was forced to degrade as follow (Table 12):
The samples collected at time point was analyzed by the RP-HPLC.

[2] = Narrow pH stability study of rhNRG-1 (pH 2.3 to 4.3) by RP-HPLC with Arrhenius shelf life prediction; type: physicochemical
Method: In a plastic tube, add the API and DI-water. Mix into a solution containing 0.25 mg/mL rhNRG-1, 4 mM phosphate (from the API) and 0.1M NaCl (from the API). Adjust pH down using a diluted HCl. Once the first target is reached, transfer about 8 mL into a separate plastic tube and continue the titration to hit the next target and collect about 8 mL at each target (i.e. 4.29, 3.90, 3.78, 3.47, 3.36, 3.17, 3.02, 2.85, 2.58, 2.37 and 2.33). For each pH, transfer into glass vials for total 5 vials each level. Place one vial each at 2-8, 25, 40, 50 and 60° C. […]
For 40° C., remove 200 μL and test by HPLC after 0, 5.7, 7 and 11 days
Construct a narrow range pH-rate (stability) profile at each temperature.
Derive an Arrhenius equation and predict shelf life at 5° C.
Using the 40, 50 and 60° C. data for each pH (2.3 to 3.9), an Arrhenius plot was used to predict the shelf life at 5° C. for each pH level. The T90 values calculated from the Arrhenius plots are provided as follows (Table 11): […]

[3] = pH 2.37, predicted shelf life at 5° C. from Arrhenius plot
[4] = pH 2.58, predicted shelf life at 5° C. from Arrhenius plot
[5] = pH 3.02, predicted shelf life at 5° C. from Arrhenius plot
[6] = pH 3.36, predicted shelf life at 5° C. from Arrhenius plot
[7] = pH 3.90, predicted shelf life at 5° C. from Arrhenius plot

B1: rhNRG-1: proteins or peptides which consist of amino acid sequence of SEQ ID NO: 2 (protein, listed as Homo sapiens)
chain: SHLVKCAEKEKTFCVNGGECFMVKDLSNPSRYLCKCPNEFTGDRCQNYVMASFYKAEELYQ
[1]; H2O2 exposure
  sensitivity to oxidation: very sensitive to peroxide and prone to oxidation
[1]; Oxidation exposure 0.3 hours
  rhNRG-1 conc.: 0.24 mg/mL
[1]; Oxidation exposure 2.4 hours
  rhNRG-1 conc.: 0.15 mg/mL
[1]; Oxidation exposure 4.5 hours
  rhNRG-1 conc.: 0.10 mg/mL
[1]; Oxidation exposure 7.1 hours
  rhNRG-1 conc.: 0.07 mg/mL
[2]; pH 2.3 to 4.3
  pH of the best stability, narrow pH study: 3.4 (±0.2)
[2]; pH 2.37 (diluted HCl)
  Initial Conc: 0.241 mg/mL
[2]; pH 2.37, 40° C., 5.7 days
  % over initial conc.: 90%
[2]; pH 2.37, 40° C., 7 days
  % over initial conc.: 83%
[2]; pH 2.37, 40° C., 11 days
  % over initial conc.: 77%
[2]; pH 2.37, 50° C., 5.7 days
  % over initial conc.: 82%
[2]; pH 2.37, 50° C., 7 days
  % over initial conc.: 53%
[2]; pH 2.37, 50° C., 11 days
  % over initial conc.: 36%
[2]; pH 2.37, 60° C., 3.7 days
  % over initial conc.: 55%
[2]; pH 2.37, 60° C., 4.7 days
  % over initial conc.: 57%
[2]; pH 2.37, 60° C., 5.7 days
  % over initial conc.: 43%
[2]; [3]
  T90: 166 days
  T90 (months): 6 months
[2]; pH 2.58 (diluted HCl)
  Initial Conc: 0.238 mg/mL
[2]; pH 2.58, 40° C., 5.7 days
  % over initial conc.: 96%
[2]; pH 2.58, 40° C., 7 days
  % over initial conc.: 89%
[2]; pH 2.58, 40° C., 11 days
  % over initial conc.: 83%
[2]; pH 2.58, 50° C., 5.7 days
  % over initial conc.: 90%
[2]; pH 2.58, 50° C., 7 days
  % over initial conc.: 54%
[2]; pH 2.58, 50° C., 11 days
  % over initial conc.: 35%
[2]; pH 2.58, 60° C., 3.7 days
  % over initial conc.: 62%
[2]; pH 2.58, 60° C., 4.7 days
  % over initial conc.: 60%
[2]; pH 2.58, 60° C., 5.7 days
  % over initial conc.: 55%
[2]; [4]
  T90: 317 days
  T90 (months): 11 months
[2]; pH 3.02 (diluted HCl)
  Initial Conc: 0.236 mg/mL
[2]; pH 3.02, 40° C., 5.7 days
  % over initial conc.: 99%
[2]; pH 3.02, 40° C., 7 days
  % over initial conc.: 94%
[2]; pH 3.02, 40° C., 11 days
  % over initial conc.: 88%
[2]; pH 3.02, 50° C., 5.7 days
  % over initial conc.: 95%
[2]; pH 3.02, 50° C., 7 days
  % over initial conc.: 79%
[2]; pH 3.02, 50° C., 11 days
  % over initial conc.: 70%
[2]; pH 3.02, 60° C., 3.7 days
  % over initial conc.: 70%
[2]; pH 3.02, 60° C., 4.7 days
  % over initial conc.: 68%
[2]; pH 3.02, 60° C., 5.7 days
  % over initial conc.: 0%
[2]; [5]
  T90: 612 days
  T90 (months): 20 months
[2]; pH 3.36 (diluted HCl)
  Initial Conc: 0.230 mg/mL
[2]; pH 3.36, 40° C., 5.7 days
  % over initial conc.: 101%
[2]; pH 3.36, 40° C., 7 days
  % over initial conc.: 97%
[2]; pH 3.36, 40° C., 11 days
  % over initial conc.: 90%
[2]; pH 3.36, 50° C., 5.7 days
  % over initial conc.: 99%
[2]; pH 3.36, 50° C., 7 days
  % over initial conc.: 85%
[2]; pH 3.36, 50° C., 11 days
  % over initial conc.: 76%
[2]; pH 3.36, 60° C., 3.7 days
  % over initial conc.: 77%
[2]; pH 3.36, 60° C., 4.7 days
  % over initial conc.: 69%
[2]; pH 3.36, 60° C., 5.7 days
  % over initial conc.: 63%
[2]; [6]
  T90: 1092 days
  T90 (months): 36 months
[2]; pH 3.90 (diluted HCl)
  Initial Conc: 0.230 mg/mL
[2]; pH 3.90, 40° C., 5.7 days
  % over initial conc.: 101%
[2]; pH 3.90, 40° C., 7 days
  % over initial conc.: 96%
[2]; pH 3.90, 40° C., 11 days
  % over initial conc.: 88%
[2]; pH 3.90, 50° C., 5.7 days
  % over initial conc.: 102%
[2]; pH 3.90, 50° C., 7 days
  % over initial conc.: 88%
[2]; pH 3.90, 50° C., 11 days
  % over initial conc.: 79%
[2]; pH 3.90, 60° C., 3.7 days
  % over initial conc.: 83%
[2]; pH 3.90, 60° C., 4.7 days
  % over initial conc.: 81%
[2]; pH 3.90, 60° C., 5.7 days
  % over initial conc.: 73%
[2]; [7]
  T90: 239 days
  T90 (months): 8 months
[2]; pH 4.29 (diluted HCl)
  Initial Conc: 0.235 mg/mL
[2]; pH 4.29, 50° C., 5.7 days
  % over initial conc.: 100%
[2]; pH 4.29, 50° C., 11 days
  % over initial conc.: 78%
[2]; pH 4.29, 60° C., 3.7 days
  % over initial conc.: 80%
[2]; pH 4.29, 60° C., 5.7 days
  % over initial conc.: 72%
